B1: 6NMW (parent)
chain: QGDIVVALYPYDGIHPDDLSFKKGEKMKVLEEHGEWWKAKSLLTKKEGFIPSNYVAKLN

Variants of: B1
Assay: folding stability dG (cDNA display proteolysis); higher = more stable
Conditions: PBS, room temperature

In order of falling “folding stability dG” value:
1. K28V  4.85 kcal/mol
2. D3Y  4.84 kcal/mol
3. D17G  4.77 kcal/mol
4. E35C  4.75 kcal/mol
5. N53W  4.69 kcal/mol
6. K26I  4.68 kcal/mol
7. E35H  4.61 kcal/mol
8. P10S  4.61 kcal/mol
9. E32I  4.6 kcal/mol
10. D3M  4.59 kcal/mol
11. L43W  4.56 kcal/mol
12. D3T  4.52 kcal/mol
13. D3I  4.5 kcal/mol
14. N53S  4.5 kcal/mol
15. E32V  4.48 kcal/mol
16. K28W  4.43 kcal/mol
17. D12V  4.41 kcal/mol
18. N53C  4.41 kcal/mol
19. D12T  4.32 kcal/mol
20. E32A  4.31 kcal/mol
21. A39V  4.31 kcal/mol
22. D3S  4.3 kcal/mol
23. E32R  4.29 kcal/mol
24. D3Q  4.27 kcal/mol
25. K45Q  4.25 kcal/mol
26. H15C  4.24 kcal/mol
27. E35L  4.23 kcal/mol
28. P10A  4.23 kcal/mol
29. E32L  4.21 kcal/mol
30. D12R  4.19 kcal/mol
31. Q1T  4.18 kcal/mol
32. A56R  4.18 kcal/mol
33. D12Q  4.13 kcal/mol
34. V55F  4.1 kcal/mol
35. E31C  4.09 kcal/mol
36. P10R  4.08 kcal/mol
37. Q1W  4.06 kcal/mol
38. N59S  4.06 kcal/mol
39. K38R  4.06 kcal/mol
40. N59G  4.04 kcal/mol
41. A56K  4.04 kcal/mol
42. D3R  4.02 kcal/mol
43. E35A  4.01 kcal/mol
44. E35I  3.97 kcal/mol
45. D12F  3.95 kcal/mol
46. E35K  3.94 kcal/mol
47. D18S  3.94 kcal/mol
48. Y11F  3.93 kcal/mol
49. N53K  3.93 kcal/mol
50. D17Y  3.92 kcal/mol
51. K45S  3.89 kcal/mol
52. D17Q  3.88 kcal/mol
53. K57W  3.87 kcal/mol
54. N53H  3.87 kcal/mol
55. K38M  3.87 kcal/mol
56. D12Y  3.86 kcal/mol
57. N59E  3.86 kcal/mol
58. S52C  3.84 kcal/mol
59. F49R  3.83 kcal/mol
60. A56Y  3.8 kcal/mol
61. K40Y  3.79 kcal/mol
62. D17H  3.78 kcal/mol
63. D12W  3.78 kcal/mol
64. G2H  3.74 kcal/mol
65. N53T  3.74 kcal/mol
66. L58W  3.73 kcal/mol
67. M27F  3.72 kcal/mol
68. K40C  3.71 kcal/mol
69. D17T  3.68 kcal/mol
70. Y54L  3.67 kcal/mol
71. Y9W  3.66 kcal/mol
72. L43R  3.66 kcal/mol
73. K22R  3.65 kcal/mol
74. K40F  3.63 kcal/mol
75. G24C  3.62 kcal/mol
76. Y9K  3.61 kcal/mol
77. D18A  3.61 kcal/mol
78. D17L  3.6 kcal/mol
79. K23C  3.59 kcal/mol
80. N59T  3.58 kcal/mol
81. N59Y  3.57 kcal/mol
82. N59Q  3.56 kcal/mol
83. P16C  3.56 kcal/mol
84. L43V  3.56 kcal/mol
85. P10G  3.56 kcal/mol
86. N59K  3.53 kcal/mol
87. S52M  3.52 kcal/mol
88. D17K  3.5 kcal/mol
89. G2N  3.5 kcal/mol
90. N53Q  3.5 kcal/mol
91. W36Y  3.49 kcal/mol
92. D3G  3.47 kcal/mol
93. L8C  3.47 kcal/mol
94. N53G  3.47 kcal/mol
95. E31A  3.46 kcal/mol
96. K38I  3.44 kcal/mol
97. Y9M  3.43 kcal/mol
98. A56F  3.43 kcal/mol
99. K57V  3.39 kcal/mol
100. K23A  3.39 kcal/mol
101. K23V  3.39 kcal/mol
102. K46C  3.37 kcal/mol
103. K38V  3.34 kcal/mol
104. E32G  3.33 kcal/mol
105. S52Q  3.31 kcal/mol
106. P10E  3.31 kcal/mol
107. G2T  3.29 kcal/mol
108. W36F  3.29 kcal/mol
109. D18W  3.29 kcal/mol
110. L58F  3.26 kcal/mol
111. L43Y  3.26 kcal/mol
112. H33G  3.24 kcal/mol
113. K57I  3.23 kcal/mol
114. I14A  3.22 kcal/mol
115. H15A  3.22 kcal/mol
116. G2Q  3.21 kcal/mol
117. Y54M  3.17 kcal/mol
118. H33V  3.16 kcal/mol
119. G2V  3.15 kcal/mol
120. K22T  3.15 kcal/mol
121. S20T  3.13 kcal/mol
122. P16V  3.11 kcal/mol
123. S52W  3.1 kcal/mol
124. L42M  3.09 kcal/mol
125. I14S  3.09 kcal/mol
126. K22E  3.06 kcal/mol
127. W36C  3.06 kcal/mol
128. H33Q  3.06 kcal/mol
129. E31M  3.05 kcal/mol
130. L43F  3.03 kcal/mol
131. K57C  3 kcal/mol
132. N53L  3 kcal/mol
133. I4L  3 kcal/mol
134. I14F  2.99 kcal/mol
135. I4Y  2.98 kcal/mol
136. K23I  2.95 kcal/mol
137. K57S  2.94 kcal/mol
138. A56W  2.92 kcal/mol
139. V6F  2.89 kcal/mol
140. H15L  2.87 kcal/mol
141. L58T  2.86 kcal/mol
142. S52F  2.85 kcal/mol
143. K57M  2.85 kcal/mol
144. H15M  2.85 kcal/mol
145. D18L  2.84 kcal/mol
146. L42F  2.83 kcal/mol
147. P16M  2.81 kcal/mol
148. K40S  2.8 kcal/mol
149. K26A  2.78 kcal/mol
150. S20C  2.77 kcal/mol
151. E31G  2.77 kcal/mol
152. E47A  2.77 kcal/mol
153. K23T  2.75 kcal/mol
154. Y9A  2.74 kcal/mol
155. P16F  2.73 kcal/mol
156. Y9I  2.72 kcal/mol
157. K22D  2.71 kcal/mol
158. V55C  2.7 kcal/mol
159. D12G  2.7 kcal/mol
160. P16L  2.7 kcal/mol
161. P16N  2.68 kcal/mol
162. E31L  2.67 kcal/mol
163. E31K  2.67 kcal/mol
164. W37T  2.67 kcal/mol
165. F49I  2.63 kcal/mol
166. I50V  2.59 kcal/mol
167. V6M  2.59 kcal/mol
168. S52N  2.58 kcal/mol
169. Y54A  2.58 kcal/mol
170. L58S  2.55 kcal/mol
171. L42I  2.51 kcal/mol
172. A56G  2.51 kcal/mol
173. G24W  2.51 kcal/mol
174. K22F  2.5 kcal/mol
175. K46S  2.48 kcal/mol
176. K46D  2.47 kcal/mol
177. L58H  2.43 kcal/mol
178. L58P  2.38 kcal/mol
179. Y9E  2.37 kcal/mol
180. V5I  2.37 kcal/mol
181. E25D  2.36 kcal/mol
182. I4T  2.35 kcal/mol
183. L30V  2.34 kcal/mol
184. G13P  2.3 kcal/mol
185. L8V  2.29 kcal/mol
186. K22Y  2.29 kcal/mol
187. E47R  2.28 kcal/mol
188. S20Q  2.27 kcal/mol
189. W37S  2.26 kcal/mol
190. Y11R  2.25 kcal/mol
191. F49Q  2.25 kcal/mol
192. E47Y  2.25 kcal/mol
193. G24Y  2.25 kcal/mol
194. A56N  2.24 kcal/mol
195. E47H  2.22 kcal/mol
196. G34N  2.22 kcal/mol
197. K46V  2.21 kcal/mol
198. D17I  2.2 kcal/mol
199. V6L  2.18 kcal/mol
200. G24H  2.15 kcal/mol
201. K46G  2.14 kcal/mol
202. G24D  2.1 kcal/mol
203. S20H  2.03 kcal/mol
204. K46Y  2.02 kcal/mol
205. K23P  2.02 kcal/mol
206. G34A  2.02 kcal/mol
207. S52L  2 kcal/mol
208. K46T  1.95 kcal/mol
209. A39I  1.95 kcal/mol
210. F49S  1.94 kcal/mol
211. V6R  1.9 kcal/mol
212. E47D  1.89 kcal/mol
213. S20M  1.88 kcal/mol
214. Y9T  1.87 kcal/mol
215. K57D  1.86 kcal/mol
216. G34E  1.86 kcal/mol
217. K23H  1.85 kcal/mol
218. G34K  1.84 kcal/mol
219. E47N  1.81 kcal/mol
220. S20E  1.75 kcal/mol
221. F21V  1.74 kcal/mol
222. G34Q  1.74 kcal/mol
223. K46W  1.73 kcal/mol
224. Y11H  1.71 kcal/mol
225. P51R  1.7 kcal/mol
226. V55T  1.68 kcal/mol
227. W36A  1.68 kcal/mol
228. G34H  1.67 kcal/mol
229. V5L  1.66 kcal/mol
230. L58K  1.65 kcal/mol
231. G34R  1.65 kcal/mol
232. K23G  1.64 kcal/mol
233. K45V  1.61 kcal/mol
234. V55M  1.6 kcal/mol
235. G34L  1.52 kcal/mol
236. Y11C  1.5 kcal/mol
237. L30W  1.5 kcal/mol
238. S41C  1.48 kcal/mol
239. L42T  1.47 kcal/mol
240. Y9G  1.46 kcal/mol
241. K22W  1.45 kcal/mol
242. Y54Q  1.44 kcal/mol
243. A7C  1.42 kcal/mol
244. G34I  1.4 kcal/mol
245. G13N  1.32 kcal/mol
246. L42Q  1.32 kcal/mol
247. A39T  1.32 kcal/mol
248. K28G  1.31 kcal/mol
249. V6A  1.29 kcal/mol
250. Y54V  1.29 kcal/mol
251. S41I  1.28 kcal/mol
252. E47G  1.26 kcal/mol
253. P51Y  1.26 kcal/mol
254. P51F  1.25 kcal/mol
255. F21M  1.22 kcal/mol
256. P51S  1.19 kcal/mol
257. V55L  1.18 kcal/mol
258. S20F  1.18 kcal/mol
259. K23N  1.18 kcal/mol
260. G13V  1.14 kcal/mol
261. W36E  1.14 kcal/mol
262. I4D  1.12 kcal/mol
263. P51D  1.08 kcal/mol
264. K40N  1.04 kcal/mol
265. Y54N  1.04 kcal/mol
266. L8Y  1.02 kcal/mol
267. G24L  1.02 kcal/mol
268. L30A  1.01 kcal/mol
269. T44H  0.98 kcal/mol
270. E25Q  0.918 kcal/mol
271. T44C  0.909 kcal/mol
272. I4R  0.874 kcal/mol
273. L30R  0.866 kcal/mol
274. I4K  0.841 kcal/mol
275. T44G  0.839 kcal/mol
276. G13H  0.829 kcal/mol
277. G13L  0.825 kcal/mol
278. E25M  0.74 kcal/mol
279. Y11M  0.669 kcal/mol
280. S41T  0.669 kcal/mol
281. I50M  0.656 kcal/mol
282. E25T  0.615 kcal/mol
283. T44F  0.599 kcal/mol
284. K45P  0.596 kcal/mol
285. G48Y  0.585 kcal/mol
286. G24Q  0.576 kcal/mol
287. M27C  0.54 kcal/mol
288. I4G  0.464 kcal/mol
289. S41Q  0.463 kcal/mol
290. A7M  0.441 kcal/mol
291. V6G  0.392 kcal/mol
292. V5T  0.383 kcal/mol
293. S41Y  0.369 kcal/mol
294. Y11I  0.264 kcal/mol
295. K26D  0.255 kcal/mol
296. T44E  0.228 kcal/mol
297. D18P  0.221 kcal/mol
298. S41R  0.201 kcal/mol
299. L42R  0.165 kcal/mol
300. M27V  0.125 kcal/mol
301. P51G  0.115 kcal/mol
302. G48K  0.081 kcal/mol
303. V29R  0.08 kcal/mol
304. L8G  0.062 kcal/mol
305. T44V  0.057 kcal/mol
306. S41G  -0.006 kcal/mol
307. W37G  -0.016 kcal/mol
308. V29W  -0.028 kcal/mol
309. S41E  -0.037 kcal/mol
310. E25F  -0.064 kcal/mol
311. I50Y  -0.106 kcal/mol
312. L42G  -0.156 kcal/mol
313. M27Y  -0.162 kcal/mol
314. V6D  -0.164 kcal/mol
315. L19N  -0.23 kcal/mol
316. V55S  -0.255 kcal/mol
317. A7I  -0.263 kcal/mol
318. T44I  -0.332 kcal/mol
319. Y11Q  -0.356 kcal/mol
320. E25G  -0.389 kcal/mol
321. V55H  -0.417 kcal/mol
322. P51T  -0.429 kcal/mol
323. A7Y  -0.494 kcal/mol
324. V55E  -0.519 kcal/mol
325. G48S  -0.544 kcal/mol
326. A7F  -0.602 kcal/mol
327. A7L  -0.675 kcal/mol
328. V5E  -0.712 kcal/mol
329. G48H  -0.819 kcal/mol
330. Y54P  -0.857 kcal/mol
331. G48W  -0.877 kcal/mol
332. M27Q  -0.878 kcal/mol
333. Y11E  -0.944 kcal/mol
334. G48N  -0.967 kcal/mol

Source: the MegaScale stability set (Tsuboyama et al. 2023)
